# Several values for one entry are separate records, joined by “and”; a condition that tells them apart may be missing. Identical values can stand only once.
# Tests used:
# [1] = target: Hepatitis B Virus (HBV) capsid (core) protein Cp183, adyw wildtype (Hepatitis B Virus, adyw); assay: negative-stain electron microscopy
# [2] = target: Hepatitis B Virus (HBV) capsid protein Cp183-EEE (S155E/S162E/S170E) (Hepatitis B Virus, adyw); assay: negative-stain electron microscopy
# SEC-MALS = target: the molecule itself; assay: SEC-MALS
molecule,measurement,setting,value
"Hepatitis B Virus (HBV) capsid (core) protein Cp183, adyw wildtype (natural protein)",stoichiometry N,[1],240 and 180
Hepatitis B Virus (HBV) capsid protein Cp183-EEE (S155E/S162E/S170E) (natural protein),stoichiometry N,[2],240 and 180
Brome Mosaic Virus (BMV) capsid protein (natural protein) MSTSGTGKMTRAQRRAAARRNRWTARVQPVIVEPLAAGQGKAIKAIAGYSISKWEASSDAITAKATNAMSITLPHELSSEKNKELKVGRVLLWLGLLPSVAGRIKACVAEKQAQAEAAFQVALAVADSSKEVVAAMYTDAFRGATLGDLLNLQIYLYASEAVPAKAVVVHLEVEHVRPTFDDFFTPVYR,stoichiometry N,SEC-MALS,180

# Reference: PMC2964155 (Virology, 2010)
